Reference: paper PMC12095580, “Wnt signalosome assembly is governed by conformational flexibility of Axin and by the AP2 clathrin adaptor” (Nature Communications, 2025)

B1: LRP6-GFP [not stated] / FLAG-AP2μ [not stated] (parent complex)
chain 1: APLLLYANRRDLRLVDATNGKENATIVVGGLEDAAAVDFVFSHGLIYWSDVSEEAIKRTEFNKTESVQNVVVSGLLSPDGLACDWLGEKLYWTDSETNRIEVSNLDGSLRKVLFWQELDQPRAIALDPSSGFMYWTDWGEVPKIERAGMDGSSRFIIINSEIYWPNGLTLDYEEQKLYWADAKLNFIHKSNLDGTNRQAVVKGSLPHPFALTLFEDILYWTDWSTHSILACNKYTGEGLREIHSDIFSPMDIHAFSQQRQPNATNPCGIDNGGCSHLCLMSPVKPFYQCACPTGVKLLENGKTCKDGATELLLLARRTDLRRISLDTPDFTDIVLQLEDIRHAIAIDYDPVEGYIYWTDDEVRAIRRSFIDGSGSQFVVTAQIAHPDGIAVDWVARNLYWTDTGTDRIEVTRLNGTMRKILISEDLEEPRAIVLDPMVGYMYWTDWGEIPKIERAALDGSDRVVLVNTSLGWPNGLALDYDEGKIYWGDAKTDKIEVMNTDGTGRRVLVEDKIPHIFGFTLLGDYVYWTDWQRRSIERVHKRSAEREVIIDQLPDLMGLKATNVHRVIGSNPCAEENGGCSHLCLYRPQGLRCACPIGFELISDMKTCIVPEAFLLFSRRADIRRISLETNNNNVAIPLTGVKEASALDFDVTDNRIYWTDISLKTISRAFMNGSALEHVVEFGLDYPEGMAVDWLGKNLYWADTGTNRIEVSKLDGQHRQVLVWKDLDSPRALALDPAEGFMYWTEWGGKPKIDRAAMDGSERTTLVPNVGRANGLTIDYAKRRLYWTDLDTNLIESSNMLGLNREVIADDLPHPFGLTQYQDYIYWTDWSRRSIERANKTSGQNRTIIQGHLDYVMDILVFHSSRQSGWNECASSNGHCSHLCLAVPVGGFVCGCPAHYSLNADNRTCSAPTTFLLFSQKSAINRMVIDEQQSPDIILPIHSLRNVRAIDYDPLDKQLYWIDSRQNMIRKAQEDGSQGFTVVVSSVPSQNLEIQPYDLSIDIYSRYIYWTCEATNVINVTRLDGRSVGVVLKGEQDRPRAVVVNPEKGYMYFTNLQERSPKIERAALDGTEREVLFFSGLSKPIALALDSRLGKLFWADSDLRRIESSDLSGANRIVLEDSNILQPVGLTVFENWLYWIDKQQQMIEKIDMTGREGRTKVQARIAQLSDIHAVKELNLQEYRQHPCAQDNGGCSHICLVKGDGTTRCSCPMHLVLLQDELSCGEPPTCSPQQFTCFTGEIDCIPVAWRCDGFTECEDHSDELNCPVCSESQFQCASGQCIDGALRCNGDANCQDKSDEKNCEVLCLIDQFRCANGQCIGKHKKCDHNVDCSDKSDELDCYPTEEPAPQATNTVGSVIGVIVTIFVSGTVYFICQRMLCPRMKGDGETMTNDYVVHGPASVPLGYVPHPSSLSGSLPGMSRGKSMISSLSIMGGSSGPPYDRAHVTGASSSSSSSTKGTYFPAILNPPPSPATERSHYTMEFGYSSNSPSTHRSYSYRPYSYRHFAPPTTPCSTDVCDSDYAPSRRMTSVATAKGYTSDLNYDSEPVPPPPTPRSQYLSAEENYESCPPSPYTERSYSHHLYPPPPSPCTDSS
chain 2: MIGGLFIYNHKGEVLISRVYRDDIGRNAVDAFRVNVIHARQQVRSPVTNIARTSFFHVKRSNIWLAAVTKQNVNAAMVFEFLYKMCDVMAAYFGKISEENIKNNFVLIYELLDEILDFGYPQNSETGALKTFITQQGIKSQHQTKEEQSQITSQVTGQIGWRREGIKYRRNELFLDVLESVNLLMSPQGQVLSAHVSGRVVMKSYLSGMPECKFGMNDKIVIEKQGKGTADETSKSGKQSIAIDDCTFHQCVRLSKFDSERSISFIPPDGEFELMRYRTTKDIILPFRVIPLVREVGRTKLEVKVVIKSNFKPSLLAQKIEVRIPTPLNTSGVQVICMKGKAKYKASENAIVWKIKRMAGMKESQISAEIELLPTNDKKKWARPPISMNFEVPFAPSGLKVRYLKVFEPKLNYSDHDVIKWVRYIGRSGIYETRC

Variants of: B1
Assay: coIP (FLAG IP, α-GFP blot densitometry)

Question: chain 1 Y1498A, chain 1 Y1501A was tested. Which ratio to parent did it give?
Answer: The ratio to parent was 0.58.

Question: With chain 1 Y1498A, chain 1 Y1501A, chain 1 Y1503A, chain 1 F1506A as the variant, how does the ratio to parent read?
Answer: Its ratio to parent is 0.05.

Question: For chain 1 Y1503A, which ratio to parent is on record?
Answer: Its ratio to parent is 0.21.

Question: With chain 1 S1560A as the variant, how does the ratio to parent read?
Answer: The ratio to parent was 0.69.

Question: With chain 1 Y1503A, chain 1 F1506A as the variant, how does the ratio to parent read?
Answer: The ratio to parent was 0.31.
